Data as given in article PMC7301450.

Target: α-CD64-scFv
Test: ELISA; wells coated with 10 μg/mL α-CD64-scFv overnight at 4 °C, blocked with 3% BSA/PBS; recombinant CD64 at 0, 0.5, 1.0, 5.0 and 10 ng/mL, room temperature 2 h; detected with rabbit anti-CD64 polyclonal antibody, anti-rabbit HRP and TMB, read at 370 nm

Sequence of α-CD64-scFv (heavy, as listed by the source, chain 1 of 2): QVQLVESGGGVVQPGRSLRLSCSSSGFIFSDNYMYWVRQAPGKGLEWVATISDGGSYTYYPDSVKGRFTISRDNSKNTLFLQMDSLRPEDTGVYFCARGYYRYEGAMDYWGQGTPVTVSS
Sequence of α-CD64-scFv (light, as listed by the source, chain 2 of 2): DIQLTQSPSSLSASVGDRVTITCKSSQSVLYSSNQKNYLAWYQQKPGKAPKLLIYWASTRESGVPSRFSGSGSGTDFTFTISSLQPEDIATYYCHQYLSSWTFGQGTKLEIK

Substance: recombinant human CD64 (from UniProt P12314 16-292) (receptor)
- maximum absorbance (at 5 ng/mL CD64): 0.236 absorbance
